Reference: patent US20190194276A1 (MAYO FOUNDATION FOR MEDICAL EDUCATION AND RESEARCH, published 2019)

Target: T1, endogenous IQGAP1 (human, UniProt P46940 2-1657)
T1 construct: also called cellular IQGAP1
Experiment: TAP of SFB-FOXO1 from 293T cells, LC-MS/MS
Procedure: 24 hours after transfection, cells were lysed by NETN buffer (20 mM Tris-HCl, pH8.0, 100 mM NaCl, 1 mM EDTA, 0.5% Nonidet P-40) with 50 mM β-glycerophosphate, 10 mM NaF, and 1 μg/mL pepstatin-A at 4° C. for 3 hours. The supernatants were incubated with streptavidin sepharose beads (GE) at 4° C. overnight. The beads were washed with NETN buffer for three times and then eluted by 2 mM biotin (Sigma) for 1 hour at 4° C. twice. The elution products were incubated with S-protein agarose beads (Novagen) overnight at 4° C. and after three times wash the products bound to S-protein agarose beads were subjected to SDS-PAGE and visualized by silver staining or Code-blue staining.
Briefly, excised gel bands were cut into approximately 1 mm³ pieces. […] Gel pieces were washed and dehydrated with acetonitrile for 10 minutes followed by removal of acetonitrile. Pieces were then completely dried in a speed-vac. […] After 45 minutes, the excess trypsin solution was removed and replaced with 50 mM ammonium bicarbonate solution to just cover the gel pieces. Samples were then placed in a 37° C. room overnight. Peptides were later extracted by removing the ammonium bicarbonate solution, followed by one wash with a solution containing 50% acetonitrile and 1% formic acid. The extracts were then dried in a speed-vac (˜1 hour). The samples were then stored at 4° C. until analysis.

T1 sequence (P46940 2-1657 limits assumed): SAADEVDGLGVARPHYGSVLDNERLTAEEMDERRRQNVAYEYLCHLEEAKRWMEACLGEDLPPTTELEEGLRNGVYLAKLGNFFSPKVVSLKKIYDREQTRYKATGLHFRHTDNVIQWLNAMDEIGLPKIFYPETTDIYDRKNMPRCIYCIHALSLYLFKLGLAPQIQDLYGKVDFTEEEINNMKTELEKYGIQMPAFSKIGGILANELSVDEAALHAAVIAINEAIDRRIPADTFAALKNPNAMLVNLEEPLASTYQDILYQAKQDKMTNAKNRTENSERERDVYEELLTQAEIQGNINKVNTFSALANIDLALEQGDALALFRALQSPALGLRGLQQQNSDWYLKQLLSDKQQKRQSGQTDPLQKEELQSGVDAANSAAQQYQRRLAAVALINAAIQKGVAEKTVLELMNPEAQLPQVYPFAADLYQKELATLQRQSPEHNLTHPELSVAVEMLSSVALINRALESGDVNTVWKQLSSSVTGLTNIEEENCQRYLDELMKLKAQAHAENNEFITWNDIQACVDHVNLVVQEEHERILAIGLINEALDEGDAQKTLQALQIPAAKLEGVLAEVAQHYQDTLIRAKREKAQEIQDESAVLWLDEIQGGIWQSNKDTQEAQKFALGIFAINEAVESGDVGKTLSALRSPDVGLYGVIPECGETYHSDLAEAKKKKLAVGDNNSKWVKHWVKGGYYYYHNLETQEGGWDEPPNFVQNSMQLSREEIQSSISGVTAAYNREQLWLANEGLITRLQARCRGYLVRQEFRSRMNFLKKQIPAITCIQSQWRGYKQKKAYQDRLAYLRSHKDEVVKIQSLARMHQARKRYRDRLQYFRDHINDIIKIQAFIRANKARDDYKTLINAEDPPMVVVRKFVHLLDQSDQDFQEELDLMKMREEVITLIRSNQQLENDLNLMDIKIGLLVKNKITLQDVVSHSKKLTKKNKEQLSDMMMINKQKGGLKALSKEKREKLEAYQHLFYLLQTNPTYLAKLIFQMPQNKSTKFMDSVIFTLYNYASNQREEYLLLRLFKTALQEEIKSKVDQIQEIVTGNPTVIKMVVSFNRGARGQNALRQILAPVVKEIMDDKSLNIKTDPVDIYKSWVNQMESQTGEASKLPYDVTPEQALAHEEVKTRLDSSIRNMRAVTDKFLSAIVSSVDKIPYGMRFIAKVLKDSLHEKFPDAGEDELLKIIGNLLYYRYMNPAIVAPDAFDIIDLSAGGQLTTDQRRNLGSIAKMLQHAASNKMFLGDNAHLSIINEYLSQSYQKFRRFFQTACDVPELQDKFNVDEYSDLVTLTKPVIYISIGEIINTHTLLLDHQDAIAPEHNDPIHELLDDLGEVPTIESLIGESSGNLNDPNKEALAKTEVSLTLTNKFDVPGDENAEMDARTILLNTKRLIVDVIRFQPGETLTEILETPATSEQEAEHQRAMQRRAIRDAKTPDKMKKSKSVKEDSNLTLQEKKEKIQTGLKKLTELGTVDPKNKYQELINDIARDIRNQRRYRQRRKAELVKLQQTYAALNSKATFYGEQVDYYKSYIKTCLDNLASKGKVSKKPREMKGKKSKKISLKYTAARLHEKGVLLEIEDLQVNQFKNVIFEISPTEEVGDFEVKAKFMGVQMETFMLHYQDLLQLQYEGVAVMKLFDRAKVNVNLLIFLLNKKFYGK

B1: SFB-tagged FOXO1 (other, human, UniProt Q12778 1-655, looked up)
chain: MAEAPQVVEIDPDFEPLPRPRSCTWPLPRPEFSQSNSATSSPAPSGSAAANPDAAAGLPSASAAAVSADFMSNLSLLEESEDFPQAPGSVAAAVAAAAAAAATGGLCGDFQGPEAGCLHPAPPQPPPPGPLSQHPPVPPAAAGPLAGQPRKSSSSRRNAWGNLSYADLITKAIESSAEKRLTLSQIYEWMVKSVPYFKDKGDSNSSAGWKNSIRHNLSLHSKFIRVQNEGTGKSSWWMLNPEGGKSGKSPRRRAASMDNNSKFAKSRSRAAKKKASLQSGQEGAGDSPGSQFSKWPASPGSHSNDDFDNWSTFRPRTSSNASTISGRLSPIMTEQDDLGEGDVHSMVYPPSAAKMASTLPSLSEISNPENMENLLDNLNLLSSPTSLTVSTQSSPGTMMQQTPCYSFAPPNTSLNSPSPNYQKYTYGQSSMSPLPQMPIQTLQDNKSSYGGMSQYNCAPGLLKELLTSDSPPHNDIMTPVDPGVAQPNSRVLGQNVMMGPNSVMSTYGSQASHNKMMNPSSHTHPGHAQQTSAVNGRPLPHTVSTMPHTSGMNRLTQVKTPVQVPLPHPMQMSALGGYSSVSSCNGYGRMGLLHQEKLPSDLDGMFIERLDCDMESIIRNDLMDGDTLDFNFDNVLPNQSFPHSVKTTTHSWVSG
notes: also called SFB-FOXO1; not shown: about 12 kDa, 119 amino acid
  binding result: binds
